# Patent US20250171535A1, “COMPOSITIONS AND METHODS FOR DEPLETION OF DISEASED HEMATOPOIETIC STEM CELLS” (Jasper Therapeutics, Inc., priority 2022, published 2025)
# Experiments:
# [1] = tested on: diseased HSC cells (CD34+CD45RA-CD117+ HSCs); experiment: Clinical study: depletion of diseased stem and progenitor cells in higher risk MDS or AML patients; type: in vivo, human; conditions: nine higher risk MDS or AML patients; single dose 0.6 mg/kg intravenously; 10-14 days post-treatment
# Protocol: FIG. 2 is a bar graph of the percent (%) depletion of CD34+CD45RA-CD117+ cells in nine myelodysplastic syndrome (MDS) and acute myeloid leukemia (AML) patients treated with a single dose of anti-c-kit antibody, measured 10-14 days post-treatment.
# (§1) Nine patients having either higher risk MDS or AML were treated with a single dose of 0.6 mg/kg JSP191 administered intravenously.
# [2] = Clinical study: safety and tolerability in higher risk MDS or AML patients; type: in vivo, human; conditions: 0.6 mg/kg intravenously
# Protocol: as §1
substance,measurement,setting,value
"JSP191: aglycosylated IgG1 humanized anti-c-kit (CD117) antibody, humanized form of murine SR1; heavy chain SEQ ID NO: 2, light chain SEQ ID NO: 3",depletion of diseased HSC cells (CD34+CD45RA-CD117+ HSCs),[1],30-95%
same,JSP191-related infusion reactions,[2],No significant JSP191-related infusion reactions were observed
same,adverse events,[2],no significant adverse events were observed
same,safety and tolerability,[2]; ongoing clinical trial,safe and well-tolerated
